Results on 2 molecules are retold here after patent publication US20180335435A1 (METAFORA BIOSYSTEMS, published 2018).

For assay [1], the target named is T1, human CAT1 (cationic amino acid transporter-1, SLC7A1) (human, UniProt P30825 1-629).
T1 construct: Endogenous on HEK293T cells or expressed from a human CAT1 vector in QT6, HEK293T or CHO cells; also called CAT1/SLC7A1; Hu-CAT1
In words: radiolabeled arginine uptake in HEK293T cells expressing BLV.RBD rFc.

The target in assay [2] is T1, human CAT1 (cationic amino acid …).

T1 sequence (P30825 whole entry): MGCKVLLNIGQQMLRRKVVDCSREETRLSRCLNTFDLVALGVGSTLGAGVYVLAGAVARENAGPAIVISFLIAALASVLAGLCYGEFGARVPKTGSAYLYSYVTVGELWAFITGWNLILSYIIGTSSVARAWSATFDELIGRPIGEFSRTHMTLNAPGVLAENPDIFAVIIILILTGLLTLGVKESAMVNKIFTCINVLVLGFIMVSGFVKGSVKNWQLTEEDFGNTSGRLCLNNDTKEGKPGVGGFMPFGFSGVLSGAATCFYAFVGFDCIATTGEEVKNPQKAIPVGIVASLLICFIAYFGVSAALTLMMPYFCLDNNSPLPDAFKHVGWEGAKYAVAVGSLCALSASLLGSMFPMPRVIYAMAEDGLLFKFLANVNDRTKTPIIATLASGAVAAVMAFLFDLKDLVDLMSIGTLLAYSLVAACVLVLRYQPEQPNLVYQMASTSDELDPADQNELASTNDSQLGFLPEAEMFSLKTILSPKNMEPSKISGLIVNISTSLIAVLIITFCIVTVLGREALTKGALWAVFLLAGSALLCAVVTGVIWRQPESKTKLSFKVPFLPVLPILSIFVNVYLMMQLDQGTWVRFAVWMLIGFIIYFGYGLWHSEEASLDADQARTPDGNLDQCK

B1: BLV.RBD fused to a rabbit Fc (rFc) tag, expressed from pCSI expression vector (Fc fusion)
chain: WRCSLSLGNQQWMTTYNQEAKFFISIDQILEAHNQSPFCPRSPRYTLDFVNGYPKIYWPPPQGRRRFGARAMVTYDCEPRCPYVGADHFDCPHWDNASQADQGSFYVNHQTLFLHLKQCHGIFTLTWEIWGYDPLITFSLHKIPAPPQGSAPSTCSKPTCPPPELLGGPSVFIFPPKPKDTLMISRTPEVTCVVVDVSQDDPEVQFTWYINNEQVRTARPPLREQQFDCTIRVVSTLPIAHQDWLRGKEFKCKVHNKALPAPIEKTISKARGQPLEPKVYTMGPPREELSSRSVSLTCMINGFYPSDISVEWEKNGKAEDNYKTTPAVLDSDGSYFLYSKLSVPTSEWQRGDVFTCSVMHEALHNHYTQKSISRSPGK
notes: also called pCSI BLV.RBD rFc
For B1, the binding result in assay [1] was “binds”.

B2: BLV.RBD-mFc ligand (receptor-binding domain of the bovine leukemia virus envelope glycoprotein tagged in frame with the constant fragment of mouse … (Fc fusion)
chain: WRCSLSLGNQQWMTTYNQEAKFFISIDQILEAHNQSPFCPRSPRYTLDFVNGYPKIYWPPPQGRRRFGARAMVTYDCEPRCPYVGADHFDCPHWDNASQADQGSFYVNHQTLFLHLKQCHGIFTLTWEIWGYDPLITFSLHKIPAPPQGSVDVPRDCGCKPCICTVPEVSSVFIFPPKPKDVLTITLTPKVTCVVVDISKDDPEVQFSWFVDDVEVHTAQTQPREEQFNSTFRSVSELPIMHQDWLNGKEFKCRVNSAAFPAPIEKTISKTKGRPKAPQVYTIPPPKEQMAKDKVSLTCMITDFFPEDITVEWQWNGQPAENYKNTQPIMDTDGSYFVYSKLNVQKSNWEAGNTFTCSVLHEGLHNHHTEKSLSHSPGK
notes: Used as a 1/10 dilution, detected with anti-mouse IgG1-Alexa Fluor 488; also called BLV.RBD ligand; BLV.RBD tagged with mouse Fc (mFc)
As for B2, the “fold increase of binding on CAT1 overexpression against empty vector” value in assay [2] is 3 fold.
